The values that follow come from article PMC4051120, “Drastic changes in conformational dynamics of the antiterminator M2-1 regulate transcription efficiency in Pneumovirinae”.

The target in data set [1] is T1, HMPV M2-1 (Human metapneumovirus strain NL1-00 (A1), UniProt Q8QN58 1-187). As to the kind of experiment: SAXS titration; Zn2+ (zinc finger intact); 150 mM NaCl, 500 mM NDSB-201; closed conformation induced, Rg up to ~8 nm, aggregation; SAXS: 20 mM Tris pH 7.5, 150 mM NaCl, 500 mM NDSB-201, +/- 5 mM EDTA, ~0.2 mg/ml protein; TSA: 50 mM HEPES pH 7.5, 150 mM NaCl, 20-99 C; crystals: 28% PEG MME 2000, 0.1 M bis-Tris pH 6.5, 20 C. To be noted: protein: recombinant; tags: N-terminal His6-3C, optionally removed by 3C protease; chain copies: 4.

Data set [2] deals with T1, HMPV M2-1. The data set can be described thus: SAXS titration; Zn2+ (zinc finger intact); 150 mM NaCl, 500 mM NDSB-201; Rg increase, aggregation; SAXS: 20 mM Tris pH 7.5, 150 mM NaCl, 500 mM NDSB-201, +/- 5 mM EDTA, ~0.2 mg/ml protein; TSA: 50 mM HEPES pH 7.5, 150 mM NaCl, 20-99 C; crystals: 28% PEG MME 2000, 0.1 M bis-Tris pH 6.5, 20 C. To be noted: protein: recombinant; tags: N-terminal His6-3C, optionally removed by 3C protease; chain copies: 4.

Take AGUUAAUUAAAAA (ssRNA) [F gene end RNA (positive sense)]: the binding result in data set [1] is “binds”.

As to ACGCGAAAAAAU (ssRNA) [leader RNA 1-12 (positive sense)], the binding result in data set [2] was “binds”.
